The supplement of paper PMC6755084

tested on: F1*sub RNA substrate (template-directed ligation); test: fraction ligated after 30 min (ligated reads / total reads); higher = more ligase activity; sequences stand for … in GAGACCGCAACTGAAAAGTTGT…AGTTCTGCACGTAGAAGCAAAAGGC; conditions: 42 °C
Method in brief: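 Templates from an oligo pool were PCR-amplified, transcribed with T7 and gel-purified to give the ribozyme variants. Ligated and unligated products were separated on gel, reverse transcribed using barcoded primers, and read on a MiSeq. A quality filter of ≥20 was applied to core bases. Fraction ligated was taken as ligated reads as a share of all reads per variant.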

Sequence	fraction ligated
TATCACTGTCGTAAGCACTTTGGTGGGTTGA [3d1413]	0.11
TATCCTTTCGAAGACACTTTGGATGGGTTGA [3d970]	0.8
TATCACTGTCGTAAACACTTTGATGGGTTGA [3d1402]	0.669
TACACTTGCGAAGACACTTTGGATGGGTTGA [3d603]	0.157
TACACTTGTCGTAAGACACTTTGGAGGGTTA [3d732]	0.0323
ATCACTTGTCTAAGAACTTTGGATGGGTTGA [3d175]	0.728
ATCACTTGCGTAAGACACTTTGGATGGGTTGA [2d8]	0.836
TATCATTGTCGTAAGACTTTGGATGGGTTGA [3d1237]	0.802
TATCACTTGCGTAAGACATTTGGATGGGTTA [3d1679]	0.808
TATCCTTGTCGAAGACACTTTGGATGGGTTG [3d1041]	0.783
TTCACTTGTCGTAAGACACTTTGGGGGTTGA [3d497]	0.0262
ATCACTTGTCGTAAGACACTTTGGAGGGTTA [3d271]	0.0188
ATCACTTGCGTAAGACACTTTGGATGGTTGA [3d153]	0.569
TATCCTTGTCTAAGACACTTTGGAGGGTTGA [3d1025]	0.0172
TACACTTTCGTAAGACACTTTGGATGGGTTGA [2d51]	0.0483
TATCACTTGTCGTAAGAACTTTGAGGGTTGA [3d2168]	0.0393
TATACTTGCGTAAGCACTTTGGATGGGTTGA [3d817]	0.739
TTCATTGTCTAAGACACTTTGGATGGGTTGA [3d321]	0.203
TATCATTGCGTAAGACACTTTGGAGGGTTGA [3d1168]	0.0323

Sequence	fraction ligated
TATCACTTGTCGTAAACACTTGGATGGGTTG [3d2087]	0.774
TATCACTGTGTAAGACACTTTGGATGGGTTA [3d1356]	0.823
TATCACGTCGTAAGACACTTTGGAGGGTTGA [3d1307]	0.104
TATCACTTGTCGTAAGACTTTGGATGGGTTG [3d2113]	0.796
TTACTTGTCGTAGACACTTTGGATGGGTTGA [3d285]	0.00592
ATCACTTGTCGTAAGACATTTGGAGGGTTGA [3d249]	0.0168
TATCACTTGTCGTAAGAATTTGGTGGGTTGA [3d2154]	0.135
TATATTGTGTAAGACACTTTGGATGGGTTGA [3d761]	0.778
TATACTTGTCGAAGACACTTTGGTGGGTTGA [3d865]	0.0282
TATACTTGTCGAAGACACTTGGATGGGTTGA [3d863]	0.743
TACACTTGTCGTAAGACATTTGGATGGGTTG [3d713]	0.324
TATCACTGTCGAAGACCTTTGGATGGGTTGA [3d1376]	0.798
TATCACTTTCGAAGAACTTTGGATGGGTTGA [3d1496]	0.843
TTCACTTGTCGTAAGCACTTTGGATGGTTGA [3d459]	0.164
TATCACTTGTCGTAAACACTTTGGTGGTTGA [3d2095]	0.0341
TATCACTTTGTAGACACTTTGGATGGGTTGA [3d1466]	0.843
TATCACTGTCGTAGACACTTTGGATGGGTTA [3d1396]	0.791
ACATTGTCGTAAGACACTTTGGATGGGTTGA [3d26]	0.0699
TATCCTTGTCGTAAGACACTTTGTGGGTTGA [3d1105]	0.0549

Sequence	fraction ligated
TATCACTTTCGTAAGACACTTGGATGGGTTG [3d1567]	0.773
TATCACTTGTCGTAAGACACTTTGAGGGTTA [3d2265]	0.0074
TACACTTGTCGTAACACTTTGGATGGGTTGA [3d660]	0.00473
TATCATTGTCTAAGAACTTTGGATGGGTTGA [3d1191]	0.803
TATCACTTGGTAAGACACTTTGGATGGGTTG [3d1598]	0.809
TATCCTTGTCGAAGACACTTTGGATGGGTTGA [2d95]	0.806
TACACTTTCGTAAGACCTTTGGATGGGTTGA [3d592]	0.0278
TATCACTTTCGTAAGACCTTTGGATGGGTTA [3d1552]	0.623
TATCCTTGTCGTAAGCACTTGGATGGGTTGA [3d1068]	0.685
TATCTGTCGTAAGACACTTTGGATGGGTTGA [3d739]	0.775
TATACTTGCGTAAGACACTTTGGATGGGTTGA [2d73]	0.703
TATCACTTGTCGAAGACACTTGGATGGGTTA [3d1962]	0.721
TATCACTGTCGTAGACACTTTGATGGGTTGA [3d1392]	0.787
TACACTGTCGTAAGACACTTGGATGGGTTGA [3d578]	0.394
TACACTTGTCGTAAACACTTTGATGGGTTGA [3d676]	0.0132
TATCACTTGTCGTAGACCTTTGATGGGTTGA [3d2022]	0.759
TATCCTTGTCGTAAGACACTTTGAGGGTTGA [3d1106]	0.0265
TATACTTGTCGTAAGCACTTTGGATGGGTTG [3d902]	0.502
